System: MS2 coat protein
Experiment: apparent KD of MS2 coat protein; designed switch direction (-1 OFF switch, 1 ON switch): -1; higher = weaker reporter binding
Outline: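 The buffer was Tris-HCl pH 7.5 with KCl, MgCl2, BSA, DTT, tRNA and Tween-20. In it, SNAP-549-labelled MS2 coat protein was titrated in doubling steps from 0.7 or 1.5 nM to 3 µM over chip-bound RNA switches transcribed by stalled E. coli RNA polymerase on Illumina chips. Apparent KD is the per-design median over clusters of curve fits to normalised fluorescence.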

[1] = Eterna round: R95, input ligand: FMN 200 uM
[2] = Eterna round: R95, input ligand: microRNA oligo, concentration not stated
[3] = Eterna round: R95, input ligand: none
[4] = input ligand: microRNA oligo, concentration not stated

Row | Sequence | apparent KD of MS2 coat protein (input ligand: FMN 200 uM) [nM] | apparent KD of MS2 coat protein (input ligand: none) [nM] | apparent KD of MS2 coat protein [2] [nM] | other results
1 | GGUCCCAGGCAGGAUAUGCAAGCCACACAUGGCGCAGAAGGGCUCACAUGAGGAUCACCCAUGUAUUUCGUUUU [Eternabot (L1) Solution 19] (Eterna round: R97, puzzle: Exclusion 6) | 86 | 42.3 | – | –
2 | GGUCGACAUGAGGAUCACCCAUGUCAGGAUAUCGUCACUGGAGCCUCGGCUCCAGUGACGAGAAGGGACAUAAU [E1/14-A2] (Eterna round: R97, puzzle: Exclusion 1) | 23.4 | 31.4 | – | –
3 | GGUCGCUUUGUCAGGAUAUCAGGUUAGAUCUGAUUUGAGAAGGGACAUGAGGAUCACCCAUGUGGCGACCUAAA [Eternabot (L1) Solution 42] (Eterna round: R97, puzzle: Brourd's mod of Exclusion 4) | 26.4 | 31.7 | – | –
4 | GGUCGGCGAGGAUAUACAUGAGGAUCACCCAUGUGAGAUAGUGCACGCGUACGUGUACGUAGAAGGCGCUGACG [JL-ex3-3.25 salish99 mod] (puzzle: Exclusion 3) | – | – | 12.4 | apparent KD of MS2 coat protein [1]: 26.1 nM; apparent KD of MS2 coat protein [3]: 8.3 nM
5 | GGUCUUCAAGUCAGGAUAUCGUCUAAUCGGUCUGGCGAGAAGGGACAUGAGGAUCACCCAUGUCGUCUCAUCAG [Ex4 #15] (Eterna round: R97, puzzle: Brourd's mod of Exclusion 4) | 27.1 | 20.4 | – | –
6 | GGUGAAGCAGGAUAUGUAUCGAUAUACAUGAGGAUCACCCAUGUCAUGUUUGAAUUGCAUAUAGAAGGGCUUCACC [Exclusion 5 (FMN-MS2 slide v.3)] (Eterna round: R97, puzzle: Exclusion 5) | 16.4 | 13.8 | – | –
7 | GGUGAGAGCAAGGAUAUGCAGAAGAGAGAAAGAGCAGAAGGUGCUACAUGAGGAUCACCCAUGUAGGAUGUGUU [JR_E6_Sub013] (puzzle: Exclusion 6) | – | – | 13.4 | apparent KD of MS2 coat protein [1]: 15.2 nM; apparent KD of MS2 coat protein [3]: 13.4 nM
8 | GGUGCGUAUGUGAGGAUAUGCUGGUCCUUGGAUCCGCAGAAGGCACAUGAGGAUCACCCAUGUGGUGUCGUACC [salish99_Bmod_Ex4_022] (puzzle: Brourd's mod of Exclusion 4) | – | – | 139 | –
9 | GGUGCGUAUGUGAGGAUAUGCUGGUCCUUGGAUCUGCAGAAGGCACAUGAGGAUCACCCAUGUGGUGUCGUACC [salish99_Bmod_Ex4_024] (Eterna round: R96, puzzle: Brourd's mod of Exclusion 4) | 105 | 506 | – | apparent KD of MS2 coat protein [4]: 411 nM
10 | GGUGCGUAUGUGAGGAUAUGCUGGUCCUUGGAUCUGCAGAAGGCACAUGAGGAUCACCCAUGUGGUGUCGUACC [salish99_Bmod_Ex4_024] (puzzle: Brourd's mod of Exclusion 4) | – | – | 276 | –
11 | GGUGCGUAUGUGAGGAUAUGCUGGUCCUUGGCUCGGCAGAAGGCACAUGAGGAUCACCCAUGUGGUGUCGUGCC [salish99_Bmod_ex4_056] (Eterna round: R96, puzzle: Brourd's mod of Exclusion 4) | 46 | 19.8 | – | apparent KD of MS2 coat protein [4]: 14.9 nM
12 | GGUGCGUAUGUGAGGAUAUGCUGGUCCUUGGCUCGGCAGAAGGCACAUGAGGAUCACCCAUGUGGUGUCGUGCC [salish99_Bmod_ex4_056] (puzzle: Brourd's mod of Exclusion 4) | – | – | 15.3 | –
13 | GGUGCGUUUGUGAGGAUAUGCUGGUCCUUGGAUCAGCAGAAGGCACAUGAGGAUCACCCAUGUGGUGUCGUCCC [salish99_Bmod_Ex4_041] (puzzle: Brourd's mod of Exclusion 4) | – | – | 210 | –
14 | GGUGCGUUUGUGAGGAUAUGCUGGUCCUUGGUUCCGCAGAAGGCACAUGAGGAUCACCCAUGUGGUGUCGUACC [salish99_Bmod_Ex4_044] (puzzle: Brourd's mod of Exclusion 4) | – | – | 148 | –
15 | GGUGCGUUUGUGAGGAUAUGCUGGUCCUUGGUUCUGCAGAAGGCACAUGAGGAUCACCCAUGUGGUGUCGUACC [salish99_Bmod_Ex4_042] (puzzle: Brourd's mod of Exclusion 4) | – | – | 64.5 | –
16 | GGUGGACAUGAGGAUCACCCAUGUGAGGAUAUCGGCCGGCUCGUGGUGGCUGGCUUCUCGAGAAGGCGCAUAGU [Exclusion 1 V75] (puzzle: Exclusion 1) | – | – | 50.6 | –
17 | GGUGGACAUGAGGAUCACCCAUGUGAGGAUAUCGGCCGGUUCGCGGUGGCUGGCGUCUCGAGAAGGCACAUAGU [Exclusion 1 V72] (puzzle: Exclusion 1) | – | – | 86.4 | –

Row | Sequence | apparent KD of MS2 coat protein (input ligand: FMN 200 uM) [nM] | apparent KD of MS2 coat protein (input ligand: none) [nM] | apparent KD of MS2 coat protein [2] [nM] | other results
18 | GGUGGACAUGAGGAUCACCCAUGUGAGGAUAUCGGCUGGCUAGCGGCGGACGGCUGCUCGAGAAGGCGCAUUGU [Exclusion 1 V84] (puzzle: Exclusion 1) | – | – | 61.1 | –
19 | GGUGGACAUGAGGAUCACCCAUGUGAGGAUAUCGGCUGGCUAGCGGCGGAUGGCUUCUCGAGAAGGCGCAUUGU [Exclusion 1 V82] (puzzle: Exclusion 1) | – | – | 67.7 | –
20 | GGUGGACAUGAGGAUCACCCAUGUGAGGAUAUCGGCUGUCUACUCGCUGACGGCUGCUCGAGAAGGCGCAUUGU [Exclusion 1 V89] (puzzle: Exclusion 1) | – | – | 38.6 | –
21 | GGUGGCUGCGUGAGACAUGAGGAUCACCCAUGUUACCGAACAAAGGAUAUAGAAGCACACAGCUACUAGAAGGUUGAAAAGAAA [Requen] (Eterna round: R96, puzzle: Exclusion NG 3) | 12.2 | 19.6 | – | apparent KD of MS2 coat protein [4]: 16.2 nM
22 | GGUGGGCUAGGAUAUGCUUUGGGAAGGCAUUCCUUCGAUAAACUUGAGGAUCACCCAAGUAGAAGGAGCUUGCC [salish99_ex2_r4_021] (Eterna round: R97, puzzle: Exclusion 2) | 21.3 | 13.6 | – | –
23 | GGUGUACAUGAGGAUCACCCAUGUUAGGAUAUAUCCAAACGCCUAGAGGAGAGGCACGAUAGAAGGAACGUGUA [Eternabot (Original) Solution 33] (Eterna round: R97, puzzle: Exclusion 1) | 37.2 | 41 | – | –
24 | GGUGUGAGGCAGGAUAUGCAAUAAGUAAGUAAUGCAGAAGGGUCUACAUGAGGAUCACCCAUGUGUGCGGUAGA [Ex6 #2] (Eterna round: R97, puzzle: Exclusion 6) | 202 | 109 | – | –
25 | GGUGUGCCAGUCAGGAUAUGAUCCACGCCCGUAGGUCAGAAGGGACUUGAGGAUCACCCAAGUUGCAAGAAAGA [Gesoxedi] (Eterna round: R97, puzzle: Brourd's mod of Exclusion 4) | 100 | 97.3 | – | –
26 | GGUUAGACGGUAGGAUAUCCAUAUCGAGUGACCCUUUCAUAACAUGAGGAUCACCCAUGUCGGUGGGAGAAGGGCCGUACGGCG [salish99_ExNG02_R04_009] (Eterna round: R96, puzzle: Exclusion NG 2) | 50.9 | 42.2 | – | apparent KD of MS2 coat protein [4]: 33.5 nM
27 | GGUUAUUGCAAGGAUAUGCUUUUUUUUGAUAUUGCAGAAGGUGCAACAUGAGGAUCACCCAUGUUGGAUGGGUU [JR_E6_Sub019] (puzzle: Exclusion 6) | – | – | 94.1 | –
28 | GGUUCCUGAGGAUAUACAUGAGGAUCACCCAUGUCUAUAUCAGCAGACGAUGACACAAGUAGAAGGUAGAGGGC [Eternabot (L2) Solution 48] (Eterna round: R97, puzzle: Exclusion 3) | 15 | 10.4 | – | –
29 | GGUUGACAUGAGGAUCACCCAUGUGAGGAUAUGCGAGAGAAAAAAGUGAGGAAGAAUUGCAGAAGGCGCUGUCG [salish99-ex1_r3_015] (puzzle: Exclusion 1) | – | – | 37.1 | apparent KD of MS2 coat protein [1]: 69.3 nM; apparent KD of MS2 coat protein [3]: 76.9 nM
30 | GGUUGACAUGAGGAUCACCCAUGUGAGGAUAUGCGAGAGAAAAAAGUGAGGAAGUUUUGCAGAAGGCGCUGUCG [salish99-ex1_r3_007] (puzzle: Exclusion 1) | – | – | 87.5 | apparent KD of MS2 coat protein [1]: 43.5 nM; apparent KD of MS2 coat protein [3]: 56 nM
31 | GGUUGGCGAGGAUAUACAUGAGGAUCACCCAUGUGACAGAAAAAAGUGAGGAAGAAAAGUAGAAGGCGCUGACG [salish99_ex3_r3_019] (puzzle: Exclusion 3) | – | – | 44.9 | apparent KD of MS2 coat protein [1]: 587 nM; apparent KD of MS2 coat protein [3]: 37.1 nM
32 | GGUUGGCGAGGAUAUACAUGAGGAUCACCCAUGUGAGACAAAAAAGUGAGGAAGAAAAGUAGAAGGCGCUGACG [salish99_ex3_r3_021] (puzzle: Exclusion 3) | – | – | 54.1 | apparent KD of MS2 coat protein [1]: 362 nM; apparent KD of MS2 coat protein [3]: 64.1 nM
33 | GGUUGGCGAGGAUAUACAUGAGGAUCACCCAUGUGAGAGAAAAAAGCGAGGAAGAAAAGUAGAAGGCGCUGACG [salish99_ex3_r3_027] (puzzle: Exclusion 3) | – | – | 43 | apparent KD of MS2 coat protein [1]: 137 nM; apparent KD of MS2 coat protein [3]: 56 nM
